What was measured:
Human ALPPL2 = Human ALPPL2 (Homo sapiens, UniProt P10696); test: BLI binding kinetics, human ALPPL2 immobilised on AR2G sensors (KD / KD apparent); conditions: VHH domains
Description: (§1) Binding kinetics were determined using the Biolayer Interferometry (BLI) Octet K2 system (Sartorius). Human ALPP, ALPPL2, ALPL (each fused with a cysteine stabilised leucine zipper) and ALPI, (SEQ ID NO: 265, SEQ ID NO: 266 and SEQ ID NO: 267 and SEQ ID NO: 264 respectively) were immobilised in sodium acetate pH5 buffer to AR2G sensors using amine coupling. All assays were conducted in PBS with a plate temperature of 25° C. Ka (M^−1s^−1), Kd (s^−1) and KD (nM) values were determined using Octet Data Analysis High Throughput software (ForteBio) for Biolayer Interferometry.
(§2) Binding kinetics were determined using the Biolayer Interferometry (BLI) Octet K2 or R4 system (Sartorius). Human ALPP, ALPPL2 and ALPL all fused with a disulphide stabilised leucine zipper (SEQ ID NO: 265, SEQ ID NO: 266, and SEQ ID NO: 267) and ALPI His (SEQ ID NO: 264) were used in BLI experiments. For KD apparent measurements, the ALPP proteins were immobilised in sodium acetate pH5 buffer to AR2G sensors using amine coupling. To measure 1:1 interactions, AHC biosensors were used to immobilise Fc-fused proteins. All assays were conducted in HBS-EP with a plate temperature of 25° C. Ka (M^−1s^−1), Kd (s^−1) and KD (nM) values were determined using Octet Data Analysis High Throughput software (Sartorius) for Biolayer Interferometry.
as §2, with “NO:264)” for “NO: 264)”

ALPP [1] = molecular target: T1, ALPP (Homo sapiens, UniProt P05187); test: Epitope binning by BLI competition assay; type: binding; conditions: BLI competition on immobilised ALPP
Description: To determine epitope cross reactivity BLI competition assays were conducted. AR2G sensors were used and ALPP immobilised as above. ALPP sensors were then dipped into a well containing a saturating concentration of the initial binder for ten minutes to get an association curve. The sensor was then dipped into a well containing the same concentration of initial binder plus 20 nM of a secondary binding.
An increase in the association curve was indicative that the second VHH bound to a distinct epitope from the initial binder. Monomers with identical CDR3s were grouped as likely to be in the same epitope bin and only one from each group used in the epitope binning experiment.

[2] = Thermal stability (Protein Thermal Shift assay); type: physicochemical; conditions: VHH domains, first derivative analysis
Description: Thermal stability assays used Applied Biosystems StepOne Real Time PCR system with the Protein Thermal Shift™ dye kit (Thermo Fisher). The assay mix was set up so that the protein was at a final concentration of 20 µM in 20 μL. 5 μL of Thermal Shift™ buffer was added alongside 2.5 μL 8× Thermal Shift™ Dye. Assays were run using the StepOne software and data analysed using Protein Thermal Shift™ software. All data are from first derivative analysis.

ALPP [3] = molecular target: T1, ALPP; test: BLI binding kinetics, human ALPP immobilised on AR2G sensors (KD / KD apparent); conditions: VHH domains
Description: as §1, §2
as §2, with “NO:264)” for “NO: 264)”

Human ALPPL2, sequence (P10696 with tags, fused parts or gaps): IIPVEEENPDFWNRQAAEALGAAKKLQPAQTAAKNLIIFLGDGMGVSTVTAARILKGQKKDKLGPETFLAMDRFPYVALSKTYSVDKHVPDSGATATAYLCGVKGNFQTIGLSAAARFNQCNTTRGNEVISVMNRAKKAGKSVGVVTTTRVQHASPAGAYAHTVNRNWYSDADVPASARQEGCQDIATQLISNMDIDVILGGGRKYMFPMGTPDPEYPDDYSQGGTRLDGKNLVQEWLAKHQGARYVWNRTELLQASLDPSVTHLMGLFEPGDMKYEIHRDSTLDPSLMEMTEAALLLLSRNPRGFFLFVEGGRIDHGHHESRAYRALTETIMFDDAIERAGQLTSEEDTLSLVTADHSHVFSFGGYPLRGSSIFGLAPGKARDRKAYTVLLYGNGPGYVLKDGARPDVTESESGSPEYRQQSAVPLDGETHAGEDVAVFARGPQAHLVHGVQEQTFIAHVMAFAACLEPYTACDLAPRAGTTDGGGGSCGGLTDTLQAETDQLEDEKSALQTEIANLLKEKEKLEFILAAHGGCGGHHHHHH
T1 sequence (P05187 with tags, fused parts or gaps): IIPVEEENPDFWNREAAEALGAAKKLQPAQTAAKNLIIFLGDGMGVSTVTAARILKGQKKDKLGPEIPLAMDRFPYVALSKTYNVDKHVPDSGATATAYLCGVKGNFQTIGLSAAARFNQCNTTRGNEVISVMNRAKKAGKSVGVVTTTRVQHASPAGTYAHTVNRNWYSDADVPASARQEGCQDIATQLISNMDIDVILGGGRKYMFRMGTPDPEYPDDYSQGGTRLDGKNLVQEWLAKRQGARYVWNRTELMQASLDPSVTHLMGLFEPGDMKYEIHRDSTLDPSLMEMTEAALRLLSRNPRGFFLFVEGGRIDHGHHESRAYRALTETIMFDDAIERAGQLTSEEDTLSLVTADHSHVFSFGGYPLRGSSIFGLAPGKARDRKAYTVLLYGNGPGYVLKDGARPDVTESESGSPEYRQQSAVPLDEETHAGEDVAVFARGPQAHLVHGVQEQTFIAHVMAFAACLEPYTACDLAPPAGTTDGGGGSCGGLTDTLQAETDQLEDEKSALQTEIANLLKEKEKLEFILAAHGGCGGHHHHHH

Row | hALPPL2 Ka (Human ALPPL2) [M⁻¹ s⁻¹] | hALPPL2 Kd (Human ALPPL2) [s⁻¹] | epitope bin (ALPP [1]) | hALPP Ka (ALPP [3]) [M⁻¹ s⁻¹] | hALPP Kd (ALPP [3]) [s⁻¹] | Molecule | Tm [2] [°C]
1 | 684000 | <1e-07 | one | 252000 | <1e-07 | F08: ALPP/ALPPL2 targeting VHH domain, SEQ ID NO: 35 (protein) VHH: QVQLVESGGGSVQAGGSLRLSCAASGPSLSNYAMGWFRQAPGKEREFVAGISWGGGRTSYTDSVKGRFTISRDNAKNTVYLQMNNLKPEDTGVYYCAGRYGRGRNVEYEYDYWGQGTQVTVSS | 77.6
2 | 471000 | 0.000288 | four | 129000 | 0.000028 | C07: ALPP/ALPPL2 targeting VHH domain, SEQ ID NO: 25 (protein) VHH: QVQLVESGGGLVQAGESLRLACAASGTIFSGNAVGWYRQAPEKQREWVSSITDYGDTDYAEAVKGRFTISRDNAKNTVYLQMNSLKPEDTAVYYCYVYQRGESEEYWGQGTQVTVSS | 70.7
3 |  |  | one | 260000 | <1e-07 | A05: ALPP/ALPPL2 targeting VHH domain, SEQ ID NO: 16; tested C-terminally His-tagged (protein, C-terminal His tag, tested C-terminally His-tagged) VHH: QVQLVESGGGLVQAGASLTLSCAASGFTFNTRSIVWFRQAPGKEREAVSCISKVAGSTYYGDSVQGRFSSSTDNAKNTVSLQMNSLKPEDTAVYTCAASFAPNCYGWSVAANMEYWGEGTMVTVSS | 69.5

The next lines start with the molecule.

Row | Molecule | hALPPL2 Ka (Human ALPPL2) [M⁻¹ s⁻¹] | hALPPL2 Kd (Human ALPPL2) [s⁻¹] | epitope bin (ALPP [1]) | hALPP Ka (ALPP [3]) [M⁻¹ s⁻¹] | hALPP Kd (ALPP [3]) [s⁻¹] | Tm [2] [°C]
4 | E06: ALPP/ALPPL2 targeting VHH domain, SEQ ID NO: 30 (protein) VHH: QVHLVESGGGLVQAGGSLRLSCAASRRSFSEYAMGWFRQAPGKEREFVAAIGWSGVIEYADSVKGRFTISRDNAKDTVYLQMNSLKPEDTAVYYCAAGLGIRVVSQTPAYWGQGTQVTVSS | 1050000 | 0.0000875 | one | 106000 | <1e-07 | 81.1
5 | A06: ALPP/ALPPL2 targeting VHH domain, SEQ ID NO: 17; tested C-terminally His-tagged (protein, C-terminal His tag, tested C-terminally His-tagged) VHH: QVHLVESGGGLVQAGGSLRLSCAASGRTFLSMGWFRQAPGKEREFVAAISWTGGSTGYADSVKGRFTISRESDKETMYLQMNSLKPEDTAVYYCAARGDVYYGGDDATRYKYWGQGTQVTVSS | 133000 | 0.000672 | two | 117000 | 0.000154 | 73.2
6 | D10: ALPP targeting VHH domain, SEQ ID NO: 28 (protein) VHH: QVQLVESGGGLVQPGGSLRLSCAASGSIFSVNTMGWYRQAPGKQRDLVAVATSGGTIHYADSVKGRFTISRDNAKNTVYLQMNSLKPEDTAVYYCNLVVPYGMIAGDHDYWGQGTKVTVSS | 2300000 | 0.0028 | five | 67300 | 0.000013 | 69.9
7 | D04: ALPP/ALPPL2 targeting VHH domain, SEQ ID NO: 26 (protein) VHH: QVQLVESGGGLVQPGGSLRLSCAASESTFSINVMGWYRQAPGKQRELVATITSGDITNYADSVKGRFTISRDNAENTVYLRTNSLKPEDTAVYYCNARGEYHSGNEYDYWGQGTQVTVSS | 754000 | 0.00022 | four | 85100 | <1e-07 | 59.8
8 | E10: ALPP/ALPPL2 targeting VHH domain, SEQ ID NO: 31 (protein) VHH: QVQLVESGGGLVQAGGSLRLSCAVSGRALSDYNIGWFRQAPGKEREFVARKTWDGSSTRYDDSVKGRFTVSIEDAKNTAYLQMSSLKTEDTAVYYCAAGRYSRARGWEYDYWGQGTQVTVSS | 1640000 | 0.000141 | one | 54200 | <1e-07 | 71.8
9 | F05: ALPP/ALPPL2 targeting VHH domain, SEQ ID NO: 34 (protein) VHH: QVQLVESGGGLVQAGGSLRLSCAASGRAFGDYNIGWFRQAPGKEREFVARRTWDGSSTRYDDSVKGRFTVSIDNAKNTAYLQMNSLKTEDTAVYYCAAGRYSRVRGWEYDYWGQGTQVTVSS | 3740000 | 0.000356 | one | 13900 | <1e-07 | 70.6
10 | B01: ALPP/ALPPL2 targeting VHH domain, SEQ ID NO: 20 (protein) VHH: QVQLVESGGGLVQAGGSLRLSCEVTRSPMPIDTMAWYRQAPGRQRELVAIISRSGSTNYADSVKGRFTISRNDTKSTMYKSTMYLKMNTLELEDTGVYYCNAVGLWNGAEYWGQGTQVTVSS | 482000 | 0.00014 | three | 162000 | 0.000191 | 82.7

From patent publication US20260216242A1, “ALPP-SPECIFIC VARIANT ANTIGEN BINDING MOLECULES” (ALMAC DISCOVERY LIMITED, priority 2022, published 2026)
